Experimental data published in the domain aggregation screens of Martell et al. (2025).

Test: soluble fraction after stress (log2 fold change); higher = more stays soluble; pooled small domains, quantitative proteomics
Conditions: stress: pH 4
Summary of the method: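 Following acid stress at pH 4, the amount of each small protein domain still soluble was measured in pooled custom libraries by high-throughput quantitative proteomics. Its fold change, on a log2 scale, is higher when more of the domain stayed soluble. This fold change is taken as a measure of aggregation propensity.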

HMGELTSILVATKQIEPGETLSSSNTQVKSWISDLIPEGAITNPESVMGRTVSSVIGVGMPVVSLHLR
soluble fraction (log2): 0.0354

HMEVAPEKVLEALNELPEIYKIVLNLYAVENMSHKEIAKKLGISLGSSKSRLSRGRVMLNTLLNR
soluble fraction (log2): -0.866

HMLEQSYYEKTDEIIELHGAKASSLIPVMQDVQAEYRYLPGELLSYIADKLGIPLAKAYSVATFYENFS
soluble fraction (log2): -0.951

HMRRPTYPTVTTEAGMVVEDRSSGFVGDIVRWSFEGVTLRDRQQQLRHFTWKPGGFLINGTPVTLKRPE
soluble fraction (log2): 0.0911

HMEVLSYYGSRGQEVVNIQTKLKQWGYYKGNIDGIFGNLTYQAVREFQRKNGLKVDGIVGPETLAALGLPT
soluble fraction (log2): -0.479

HMAPQSAAAILRYLSSGAIRGVGPATAQRIVERFGTDSLEIIQNRPKELAAINGISINKALSISEEYAKQY
soluble fraction (log2): -0.0357

HMSHANAALTPRARLRLAKLIVEEHWPVATAAKMFMVSPPTARKWATRFRAEGPAGMADRSSRP
soluble fraction (log2): 0.123

HMSGAERAAALLVALGPEVASEIMKFLDDESIQKLASEIAKIEVLSPQEKEDLIGQFLLELKKT
soluble fraction (log2): -0.982

HMKAQLQHIIGSNIKLARNTQGYTQEGLAERAEISVEHLKQVERGKKMLSVESLVNVANALQVSVDSLV
soluble fraction (log2): -0.205

HMPQTDDSEPLGKYGRMRLAYLKNQRPVLYNQMLLNGTLWPHLQDVQKTAYEWLERTMTTLLDK
soluble fraction (log2): -0.581

HMTLSDDEFEIIKSLIIDTLKEEALTINALTKKINHKEAKTIQVIRFLLDNGLVAENNLMKLFVI
soluble fraction (log2): -1.54

HMNLRLKEVLDEKNMSLVTLSEKTGIEKGNLSAISNNKKNPTVETLSKIAKALQISLAELFESPP
soluble fraction (log2): 0.169

HMSTVELPVQINGKVRGRITVPANAGQEDVKQAALADSKVQRYIEGASIRKVIVVPRKLVNIVV
soluble fraction (log2): ≥ 0.43

HMSRSSQMVNFIRLLSQEKKVSVNSIFSSSVQLSDGIIVKINDFYYRVNLSLDQKTYSLVEVS
soluble fraction (log2): 0.12

HMLELDRTNLLGVFGSKSNPYALIMLSNGEMLKLSIGDQFLGWRVYAIDQTTVHVQNGKNQEILRIP
soluble fraction (log2): -0.772

HMEAAIRNALSRVENPDETQRARIYRTAHDALIRNLENRGITDPEQVRPQVSRLKDLISVIEREYHG
soluble fraction (log2): -0.0565

HMSKYLAFTVKKNDELLPFIEKALNGISHTKAKAILANGGAMVNKNTITQYNYPLTPGMTVEISRH
soluble fraction (log2): 0.187

HMTDITSAITRLNKYNKSGTPLTIDSVTPEALQTLQAKVSSAFEIGAVNQQTYDDVTKDIATLQQYLSSA
soluble fraction (log2): -0.102

HMYEDSNQSLNFFAIKFIKEKNIKISQETTNLIVERARGDRGNLINELQKLEALSLTRKKITQEDVFNLTN
soluble fraction (log2): 0.22

HMTLTIEDQLRRLRARLGRGRAFLFSDVLVNPHDRTEIAVTLLALLELIKRREAQASQSYLFGPIEVAAA
soluble fraction (log2): -1.33

HMGPSVGMTVGEMERDLIFRTLETVGDNRTKAADMLGISIRTLRNKLNEYREAGFEWPRKAG
soluble fraction (log2): -0.0611

HMKLTESQLHKFTNDAVLAHIRNLIEFKGAFTEDDIEPIIRDRAAVYGIDLEDEDYKKVKTDVEYHFK
soluble fraction (log2): -1.53

HMGRPQISDELRNAIIEVAKDNRDWGYIRIQGQLKYLGYRVSTATIGKVLKKAGLEPQPDRRRK
soluble fraction (log2): -0.667

HMSVTVMVLRAAGDIQAGTEITDKHLATVEVGEYGLPEGIINDKDSILGKIALTDIAKGDYFFSQKLG
soluble fraction (log2): -1.31

HMNTLLYAPKVSPNPFTPNADGINDVVNISYKLLRVISAVPISVEVFDLSGRLIKTLYSGVDPLGEY
soluble fraction (log2): 0.425

HMEVPQVETEKVEAKLKEAEVLLVKVTDSSLKANATETLAGLRNNLTLQTMDNNGIMAEAEKLLALLRES
soluble fraction (log2): -0.315

HMTLVKRSAMVTAWSEFAGGRVNSKLIALQNGKAGDWIELENPQSGRKLRGRVQSDGSVRLGS
soluble fraction (log2): 0.017

HMDIAYFSNAELNDAFIQFLNMRQEAGKQLNGYQIQILTEKLERVADTDEDRISAVKNAIAGGWSNFYPPK
soluble fraction (log2): -0.366

HMFQPEQISKLNELETLVLDFIIKSPDKVQKATIRSLATQLHVSTTTIVRMSTKLGFNGWSELKFFLKNQS
soluble fraction (log2): -0.65

HMSNEIIFNQKSITRFLMNPENNSPMIYPLELGHEMKVIKKNNDWLNVTDEKTGLNGWVISDDFGLTKPEG
soluble fraction (log2): -0.133

HMSNVDYSQFKKDTVVEHTKFGRGIIIQTSGDGEDKIAAIAFKGLGVKRFSLAIAAASLKIIGKNDE
soluble fraction (log2): 0.194

HMRLADHVVEKLLALVQDRGLQPGQKLPAERQLAEELGVSRTSVREAIQKLTSQGVLSARRGDGTYLQS
soluble fraction (log2): 0.402

HMAKSMRHLIVPSRETSLWRDKLSTNGWLSKGYGIHNLDDYRGIPLNETAPKIIEGLEITELEPIS
soluble fraction (log2): -0.755

HMKIPGIGDVYAILARVYSGPQFTWIEAGFPEDDTKAYSYLHTAIRKGSAIAILQAMRTSGALTPTIEKE
soluble fraction (log2): -0.457

HMEAPWQEIKRQVMDGLDMSREFTDEELRERIALAVRSYSKEKLLSLKVRESYEEQIFNSFR
soluble fraction (log2): -0.261

HMLPDPIYEAFMMASDLGIVVRNGPQYAYPDKETGEVLYKALGREKFLQLMKDNDGLLTSIETEIRSM
soluble fraction (log2): -1.3

HMDSAQLARWAATILAQNGRKITPSTMNLFLERVGDDMENIRMELEKLISYTMGSEVVTAEDVKVITTVQ
soluble fraction (log2): -0.82
